The text below walks through data of article PMC6347194, “Protein refolding based on high hydrostatic pressure and alkaline pH: Application on a recombinant dengue virus NS1 protein” (PLoS ONE, 2019).

The stoichiometry N is the number of molecules, sites or subunits per partner or assembly.

The series “SEC” deals with the molecule itself. As to the kind of experiment: SEC. (In gel filtration, larger molecules generally elute earlier.)
Series [1] concerns the molecule itself. Briefly: SEC; Superdex 200 10/300, elution in 50 mM CAPS pH 11.0; supernatant of NS1-IBs subjected to 2.4 kbar/0.4 kbar at pH 11.0, before dialysis.

B1: dengue virus (DENV) non-structural protein 1 (NS1), recombinant, refolded from inclusion bodies (natural protein)
chain: DSGCVVSWKNKELKCGSGIFITDNVHTWTEQYKFQPESPSKLASAIQKAHEEGICGIRSVTRLENLMWKQITPELNHILSENEVKLTIMTGDIKGIMQAGKRSLQPQPTELKYSWKTWGKAKMLSTESHNQTFLIDGPETAECPNTNRAWNSLEVEDYGFGVFTTNIWLKLREKQDVFCDSKLMSAAIKDNRAVHADMGYWIESALNDTWKIEKASFIEVKSCHWPKSHTLWSNGVLESEMIIPKNFAGPVSQHNYRPGYHTQTAGPWHLGKLEMDFDFCEGTTVVVTEDCGNRGPSLRTTTASGKLITEWCCRSCTLPPLRYRGEDGCWYGMEIRPLKEKEENLVNSLVTA
notes: also called DENV NS1
Take B1: the entries for the “stoichiometry N” value (in the series “SEC”; in series [1]) were 3 and 2, respectively.
